Results from article PMC3201864.

Columns and labels:
[1] = molecular target: T1, CELF1 RRM1 (Xenopus, UniProt O57406 1-101); assay: NMR titration
[2] = molecular target: T2, CELF1 T187 (RRM1-RRM2) (Xenopus, UniProt O57406 1-187); assay: NMR titration
[3] = molecular target: T2, CELF1 T187 (RRM1-RRM2); assay: EMSA
[4] = molecular target: T1, CELF1 RRM1; assay: gel filtration
[5] = molecular target: T2, CELF1 T187 (RRM1-RRM2); assay: ESI-MS
[6] = molecular target: T2, CELF1 T187 (RRM1-RRM2); assay: gel filtration
[7] = molecular target: T2, CELF1 T187 (RRM1-RRM2); assay: gel filtration; remark: listed apart in the source
[8] = molecular target: T2, CELF1 T187 (RRM1-RRM2); assay: gel filtration; remark: listed apart in the source
[9] = molecular target: T1, CELF1 RRM1; assay: gel filtration; remark: listed apart in the source
[10] = molecular target: CELF1 RRM2 (Xenopus, UniProt O57406 108-187); assay: gel filtration
[11] = molecular target: T2, CELF1 T187 (RRM1-RRM2); assay: EMSA; remark: listed apart in the source
[12] = molecular target: T2, CELF1 T187 (RRM1-RRM2); assay: ITC
[13] = molecular target: T1, CELF1 RRM1; assay: ESI-MS
[14] = molecular target: T2, CELF1 T187 (RRM1-RRM2); assay: gel filtration; remark: listed apart in the source

T1 sequence (O57406 1-101): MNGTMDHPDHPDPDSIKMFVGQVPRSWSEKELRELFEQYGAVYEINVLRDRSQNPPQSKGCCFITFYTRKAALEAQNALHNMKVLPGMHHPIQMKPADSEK
T2 sequence (O57406 1-187): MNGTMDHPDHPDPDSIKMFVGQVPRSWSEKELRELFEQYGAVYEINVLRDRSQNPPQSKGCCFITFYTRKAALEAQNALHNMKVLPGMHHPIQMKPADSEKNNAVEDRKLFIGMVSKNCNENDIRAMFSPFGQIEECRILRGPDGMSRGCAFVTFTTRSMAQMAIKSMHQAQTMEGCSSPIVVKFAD
Chain of CELF1 RRM2 (O57406 108-187): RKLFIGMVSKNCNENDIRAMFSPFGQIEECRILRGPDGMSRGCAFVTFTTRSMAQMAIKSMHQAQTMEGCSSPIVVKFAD

Binder: CUGCUG (ssRNA) [CUG2]
- binding result [1]: binds

Binder: UGUUUUUGU (ssRNA) [EDEN3U (x=3)]
- binding result [2]: binds

Binder: UGUCUGUCUGUCUGU (ssRNA) [GUCU15]
- binding result [3]: binds

Binder: UGUUUAU (ssRNA) [EDEN7m]
- binding result [4]: binds

Binder: UGUUUGUUUGU (ssRNA) [EDEN11 (GRE)]
- binding result [5]: binds

Binder: UGUUUGUUUGUUUGU (ssRNA) [EDEN15]
- binding result [6]: binds

Binder: UGUGUGUGUGUGUGU (ssRNA) [UG15 (GU15 in text)]
- binding result [7]: binds

Binder: UAUUUAU (ssRNA) [ARE7]
- binding result [8]: no binding
- binding result [9]: no binding
- binding result [10]: no binding

Binder: UAUUUAUUUAUUUAU (ssRNA) [ARE15]
- binding result [11]: no binding

Binder: UGU (ssRNA)
- Kd [12]: 64 ± 2 µM

Binder: UUGUUUGUU (ssRNA) [EDEN9]
- binding result [13]: binds

Binder: CUGCUGCUGCUGCUG (ssRNA) [CUG15]
- binding result [14]: binds
